In article PMC6593972:

Target: fluorescein isothiocyanate (FITC)-casein
Experiment: fluorescence polarisation; fluorescence anisotropy; FITC-casein 100 nM, ClpB (WT or mutant) varied; Reaction buffer, 10 min at 30°C, 2 mM ATP; black 384 well plates; Kd by nonlinear regression

fluorescein isothiocyanate (FITC)-casein, sequence (P02662 16-214): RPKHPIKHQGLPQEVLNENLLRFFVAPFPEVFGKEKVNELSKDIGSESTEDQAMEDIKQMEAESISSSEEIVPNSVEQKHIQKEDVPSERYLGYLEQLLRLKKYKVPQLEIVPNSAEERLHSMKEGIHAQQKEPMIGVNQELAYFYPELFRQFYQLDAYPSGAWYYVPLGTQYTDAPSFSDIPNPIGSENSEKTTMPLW
ClpB wild-type, sequence (P63284 whole entry): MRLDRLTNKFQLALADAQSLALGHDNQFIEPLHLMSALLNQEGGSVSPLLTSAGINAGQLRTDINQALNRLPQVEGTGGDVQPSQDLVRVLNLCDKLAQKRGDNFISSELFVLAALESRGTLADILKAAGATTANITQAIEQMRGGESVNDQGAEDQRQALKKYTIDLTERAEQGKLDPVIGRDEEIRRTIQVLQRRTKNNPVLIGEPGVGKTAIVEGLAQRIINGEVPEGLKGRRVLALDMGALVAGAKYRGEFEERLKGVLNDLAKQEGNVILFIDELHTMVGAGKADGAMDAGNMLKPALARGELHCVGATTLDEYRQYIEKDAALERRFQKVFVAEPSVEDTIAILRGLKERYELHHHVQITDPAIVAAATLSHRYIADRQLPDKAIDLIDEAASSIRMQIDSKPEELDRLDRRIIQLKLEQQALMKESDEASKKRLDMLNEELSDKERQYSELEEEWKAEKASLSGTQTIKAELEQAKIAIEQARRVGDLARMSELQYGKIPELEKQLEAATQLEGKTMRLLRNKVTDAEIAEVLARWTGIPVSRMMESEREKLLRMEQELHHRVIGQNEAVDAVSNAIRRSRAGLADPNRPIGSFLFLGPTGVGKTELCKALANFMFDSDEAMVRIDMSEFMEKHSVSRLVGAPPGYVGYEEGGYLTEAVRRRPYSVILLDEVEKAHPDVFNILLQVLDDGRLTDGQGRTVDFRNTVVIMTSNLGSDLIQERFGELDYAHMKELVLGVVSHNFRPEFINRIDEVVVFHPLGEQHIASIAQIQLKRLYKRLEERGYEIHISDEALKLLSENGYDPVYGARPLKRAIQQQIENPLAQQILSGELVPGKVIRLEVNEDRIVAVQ

Substance: ClpB wild-type (from UniProt P63284 1-857) (natural protein)
- Kd: 330 nM

Substance: ClpB-K476C (from UniProt P63284 1-857) (natural protein)
- Kd: 220 nM
